This is an account of results in publication PMC4176352, “Essential role of eIF5-mimic protein in animal development is linked to control of ATF4 expression” (Nucleic Acids Research, 2014).

B1: polyhistidine-tagged human 5MP1 C-terminal domain (aa. 245–419) (domain or fragment, UniProt Q9Y6E2 245-419, looked up)
chain: FLRVQQSLGTRKELQKELQERLSQECPIKEVVLYVKEEMKRNDLPETAVIGLLWTCIMNAVEWNKKEELVAEQALKHLKQYAPLLAVFSSQGQSELILLQKVQEYCYDNIHFMKAFQKIVVLFYKADVLSEEAILKWYKEAHVAKGKSVFLDQMKKFVEWLQNAEEESESEGEEN
notes: human eIF5-mimic protein 1 (5MP1, BZW2), CTD, aa; 245-419; Preparation of the construct is described in the Supplementary file; also called 5MP1-CTD; CTD
B2: human eIF2β 53–136 (domain or fragment, UniProt P20042 53-136, looked up)
chain: DLEADEEDTRKKDASDDLDDLNFFNQKKKKKKTKKIFDIDEAEEGVKDLKIESDVQEPTEPEDDLDIMLGNKKKKKKNVKFPDE
notes: human eIF2 beta subunit, residues 53-136, carrying two K-boxes; also called eIF2β_(53–135)
B3: polyhistidine-tagged full-length human 5MP1 (natural protein, UniProt Q9Y6E2 1-419, looked up)
chain: MNKHQKPVLTGQRFKTRKRDEKEKFEPTVFRDTLVQGLNEAGDDLEAVAKFLDSTGSRLDYRRYADTLFDILVAGSMLAPGGTRIDDGDKTKMTNHCVFSANEDHETIRNYAQVFNKLIRRYKYLEKAFEDEMKKLLLFLKAFSETEQTKLAMLSGILLGNGTLPATILTSLFTDSLVKEGIAASFAVKLFKAWMAEKDANSVTSSLRKANLDKRLLELFPVNRQSVDHFAKYFTDAGLKELSDFLRVQQSLGTRKELQKELQERLSQECPIKEVVLYVKEEMKRNDLPETAVIGLLWTCIMNAVEWNKKEELVAEQALKHLKQYAPLLAVFSSQGQSELILLQKVQEYCYDNIHFMKAFQKIVVLFYKADVLSEEAILKWYKEAHVAKGKSVFLDQMKKFVEWLQNAEEESESEGEEN
notes: human eIF5-mimic protein 1 (5MP1, BZW2), full length; Preparation of the construct is described in the Supplementary file; also called BZW2; eIF5-mimic protein 1

What all share (experiment): ITC; a solution of eIF2β 53–136 injected with human 5MP1 constructs; performed as described previously (16)
Settings in all cases: both partners purified
Background: ITC needs no label: the signal is the heat of the interaction.

Assay [1] has as its target B2.
Assay [2] addresses B3.
Assay [3] concerns the target B1.

For orientation: stoichiometry N means a count of units in the complex or per binding partner. With B1, the “stoichiometry N” value in assay [1] was 0.5.
The Kd is the equilibrium constant for the complex coming apart. A lower Kd goes with tighter binding. B2: the Kd was around 2 µM in assay [2] and around 5 µM in assay [3].
Take B3: the “stoichiometry N” value in assay [1] turned out to be 1.
